Results on 1 molecule are retold here after publication PMC9479348 (Journal of Nanobiotechnology, 2022).

The experiment deals with lysozyme (UniProt P00698). Put plainly: ELISA; phage ELISA: lysozyme immobilised in a 96-well NUNC Maxisorp plate; 1ZVH displayed on phage. The note with it: one partner purified. (In general: An ELISA detects its analyte on a solid surface through an enzyme-linked reagent.)
Chain of lysozyme (P00698 19-147): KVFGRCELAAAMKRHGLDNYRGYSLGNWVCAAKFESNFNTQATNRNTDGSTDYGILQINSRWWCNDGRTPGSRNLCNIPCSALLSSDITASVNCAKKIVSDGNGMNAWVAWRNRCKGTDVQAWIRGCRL

B1: camel nanobody 1ZVH, displayed on phage (VHH)
VHH: DVQLVESGGGSVQAGGSLRLSCAASGYIASINYLGWFRQAPGKEREGVAAVSPAGGTPYYADSVKGRFTVSLDNAENTVYLQMNSLKPEDTALYYCAAARQGWYIPLNSYGYNYWGQGTQVTVSS
notes: also called template of the ASyNAL library
B1: the binding result is listed as “binds”.
